Results on ten molecules are retold here after paper PMC5907831 (Journal of Molecular Cell Biology, 2017).

Like-named read-outs stand apart in the source and are kept apart here.

B1: SRP72^1–163 (human SRP72 N-terminal TPR domain, SRP68-binding domain) (domain or fragment, UniProt O76094 1-163, looked up)
chain: MASGGSGGVSVPALWSEVNRYGQNGDFTRALKTVNKILQINKDDVTALHCKVVCLIQNGSFKEALNVINTHTKVLANNSLSFEKAYCEYRLNRIENALKTIESANQQTDKLKELYGQVLYRLERYDECLAVYRDLVRNSQDDYDEERKTNLSAVVAAQSNWEK

Data set [1] is described as follows: Stability/solubility of SRP68 fragments and of SRP72 without cap. It counts as physicochemical. The following applies: preliminary experiments.
Data set [2] concerns the molecule itself. Kind of data set: SEC. A general note: Size exclusion chromatography separates by hydrodynamic size, large species first.
Data set [3] concerns the molecule itself. Kind of data set: AUC.
Data set [4] can be described thus: Size-exclusion chromatography. The class given is physicochemical. The following applies: Superdex 75 10/300 GL; 20 mM Tris-HCl pH 8.0, 500 mM NaCl.
The target of data set [5] is T1, SRP72 V136A/R137A double mutant (human, UniProt O76094 1-163, V136A | R137A).
T1 sequence (looked up): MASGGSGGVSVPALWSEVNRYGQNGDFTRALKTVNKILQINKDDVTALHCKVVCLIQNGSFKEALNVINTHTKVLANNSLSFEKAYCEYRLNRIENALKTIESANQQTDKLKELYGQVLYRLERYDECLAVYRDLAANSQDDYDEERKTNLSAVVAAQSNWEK
The experiment in a line: pull-down.

Data set [6] addresses B1. The experiment in a line: MST.
The conditions of data set [7]: ref Iakhiaeva et al., 2009, cited from earlier work.
The subject of data set [8] is SRP68. Kind of data set: Binding ability of SRP72 mutants with Flag-tagged SRP68 from HCT116 cell lysate. Conditions: HCT116 cells. The class given is cell-based, human.

For the molecule “570–605: C-terminal SRP68 fragment from previous study (KQANLVHFPPGFQPIPCKPLFFDLALNHVAFPPLED; UniProt Q9UHB9 570-605, looked up, fragment) [reference compound]”, the “degradation / solubility of fragment” value in data set [1] is on record as “either prone to degradation or not soluble”.

The term stoichiometry N denotes a count of units in the complex or per binding partner. With B1, the “stoichiometry N” value came to 2 in data set [2] and 4 in data set [3].

B2: apo-SRP72: human SRP72 N-terminal TPR domain, residues 1–163, apo form (protein)
chain: MASGGSGGVSVPALWSEVNRYGQNGDFTRALKTVNKILQINKDDVTALHCKVVCLIQNGSFKEALNVINTHTKVLANNSLSFEKAYCEYRLNRIENALKTIESANQQTDKLKELYGQVLYRLERYDECLAVYRDLVRNSQDDYDEERKTNLSAVVAAQSNWEK
modifications: left off: His6, N-terminal, cleaved
In the case of B2, the “oligomeric state in solution (SEC)” value in data set [4] was “mainly as a dimer in solution”.

B3: Y132A/R133A: double mutant of SRP72 in helix α8 (protein)
chain: MASGGSGGVSVPALWSEVNRYGQNGDFTRALKTVNKILQINKDDVTALHCKVVCLIQNGSFKEALNVINTHTKVLANNSLSFEKAYCEYRLNRIENALKTIESANQQTDKLKELYGQVLYRLERYDECLAVAADLVRNSQDDYDEERKTNLSAVVAAQSNWEK
modifications: left off: His6, N-terminal, state not stated
For B3, the “oligomeric state in solution (SEC)” value in data set [4] was “eluted as monomers”.

B4: V136A/R137A: monomeric double mutant of SRP72 in helix α8 (protein)
chain: MASGGSGGVSVPALWSEVNRYGQNGDFTRALKTVNKILQINKDDVTALHCKVVCLIQNGSFKEALNVINTHTKVLANNSLSFEKAYCEYRLNRIENALKTIESANQQTDKLKELYGQVLYRLERYDECLAVYRDLAANSQDDYDEERKTNLSAVVAAQSNWEK
modifications: left off: His6, N-terminal, state not stated
In the case of B4, in data set [4], the “oligomeric state in solution (SEC)” value was “eluted as monomers”.

By Kd is commonly meant the concentration at which binding is half-saturated. Higher therefore signals weaker binding. PLFFDLALNHVAFPPLEDKLEQK (peptide, UniProt Q9UHB9 588-610, looked up) [GST-tagged SRP68 residues 588−610 (23-residue peptide of SRP68)]: in data set [5], the binding result is given as “binds”. In addition, the affinity in data set [6], expressed as Kd, was 730 ± 200 nM.

B5: residues 530–620: C-terminal SRP68 fragment from previous study (protein, UniProt Q9UHB9 530-620, looked up, fragment)
chain: AAILDANDAHQTETSSSQVKDNKPLVERFETFCLDPSLVTKQANLVHFPPGFQPIPCKPLFFDLALNHVAFPPLEDKLEQKTKSGLTGYIK
Consider B5, for which the “degradation / solubility of fragment” value in data set [1] is on record as “either prone to degradation or not soluble”.

B6: SRP68/72 complex: heterodimer of SRP68 and SRP72 (protein, UniProt Q9UHB9 1-627; O76094 2-671, looked up)
Signal recognition particle … 1: MAAEKQVPGGGGGGGSGGGGGSGGGGSGGGRGAGGEENKENERPSAGSKANKEFGDSLSLEILQIIKESQQQHGLRHGDFQRYRGYCSRRQRRLRKTLNFKMGNRHKFTGKKVTEELLTDNRYLLLVLMDAERAWSYAMQLKQEANTEPRKRFHLLSRLRKAVKHAEELERLCESNRVDAKTKLEAQAYTAYLSGMLRFEHQEWKAAIEAFNKCKTIYEKLASAFTEEQAVLYNQRVEEISPNIRYCAYNIGDQSAINELMQMRLRSGGTEGLLAEKLEALITQTRAKQAATMSEVEWRGRTVPVKIDKVRIFLLGLADNEAAIVQAESEETKERLFESMLSECRDAIQVVREELKPDQKQRDYILEGEPGKVSNLQYLHSYLTYIKLSTAIKRNENMAKGLQRALLQQQPEDDSKRSPRPQDLIRLYDIILQNLVELLQLPGLEEDKAFQKEIGLKTLVFKAYRCFFIAQSYVLVKKWSEALVLYDRVLKYANEVNSDAGAFKNSLKDLPDVQELITQVRSEKCSLQAAAILDANDAHQTETSSSQVKDNKPLVERFETFCLDPSLVTKQANLVHFPPGFQPIPCKPLFFDLALNHVAFPPLEDKLEQKTKSGLTGYIKGIFGFRS
Signal recognition particle … 2: ASGGSGGVSVPALWSEVNRYGQNGDFTRALKTVNKILQINKDDVTALHCKVVCLIQNGSFKEALNVINTHTKVLANNSLSFEKAYCEYRLNRIENALKTIESANQQTDKLKELYGQVLYRLERYDECLAVYRDLVRNSQDDYDEERKTNLSAVVAAQSNWEKVVPENLGLQEGTHELCYNTACALIGQGQLNQAMKILQKAEDLCRRSLSEDTDGTEEDPQAELAIIHGQMAYILQLQGRTEEALQLYNQIIKLKPTDVGLLAVIANNIITINKDQNVFDSKKKVKLTNAEGVEFKLSKKQLQAIEFNKALLAMYTNQAEQCRKISASLQSQSPEHLLPVLIQAAQLCREKQHTKAIELLQEFSDQHPENAAEIKLTMAQLKISQGNISKACLILRSIEELKHKPGMVSALVTMYSHEEDIDSAIEVFTQAIQWYQNHQPKSPAHLSLIREAANFKLKYGRKKEAISDLQQLWKQNPKDIHTLAQLISAYSLVDPEKAKALSKHLPSSDSMSLKVDVEALENSAGATYIRKKGGKVTGDSQPKEQGQGDLKKKKKKKKGKLPKNYDPKVTPDPERWLPMRERSYYRGRKKGKKKDQIGKGTQGATAGASSELDASKTVSSPPTSPRPGSAATVSASTSNIIPPRHQKPAGAPATKKKQQQKKKKGGKGGW
Turning to B6, the figures for the complex stability result in data set [7] (1 M NaCl) and in data set [7] (2 M urea) were “remains stable” and “stability in 2 M urea”, respectively.

B7: SRP72 Y86C: cancer-associated SRP72 mutant (protein, UniProt O76094 2-671, looked up, variant Y86C)
Signal recognition particle …: ASGGSGGVSVPALWSEVNRYGQNGDFTRALKTVNKILQINKDDVTALHCKVVCLIQNGSFKEALNVINTHTKVLANNSLSFEKACCEYRLNRIENALKTIESANQQTDKLKELYGQVLYRLERYDECLAVYRDLVRNSQDDYDEERKTNLSAVVAAQSNWEKVVPENLGLQEGTHELCYNTACALIGQGQLNQAMKILQKAEDLCRRSLSEDTDGTEEDPQAELAIIHGQMAYILQLQGRTEEALQLYNQIIKLKPTDVGLLAVIANNIITINKDQNVFDSKKKVKLTNAEGVEFKLSKKQLQAIEFNKALLAMYTNQAEQCRKISASLQSQSPEHLLPVLIQAAQLCREKQHTKAIELLQEFSDQHPENAAEIKLTMAQLKISQGNISKACLILRSIEELKHKPGMVSALVTMYSHEEDIDSAIEVFTQAIQWYQNHQPKSPAHLSLIREAANFKLKYGRKKEAISDLQQLWKQNPKDIHTLAQLISAYSLVDPEKAKALSKHLPSSDSMSLKVDVEALENSAGATYIRKKGGKVTGDSQPKEQGQGDLKKKKKKKKGKLPKNYDPKVTPDPERWLPMRERSYYRGRKKGKKKDQIGKGTQGATAGASSELDASKTVSSPPTSPRPGSAATVSASTSNIIPPRHQKPAGAPATKKKQQQKKKKGGKGGW
On to B7, for which the “binding ability compared with wild-type (HCT116)” value in data set [8] is “severely compromised or abolished the binding ability”.

B8: SRP72 V53I: cancer-associated SRP72 mutant (protein, UniProt O76094 2-671, looked up, variant V53I)
Signal recognition particle …: ASGGSGGVSVPALWSEVNRYGQNGDFTRALKTVNKILQINKDDVTALHCKVICLIQNGSFKEALNVINTHTKVLANNSLSFEKAYCEYRLNRIENALKTIESANQQTDKLKELYGQVLYRLERYDECLAVYRDLVRNSQDDYDEERKTNLSAVVAAQSNWEKVVPENLGLQEGTHELCYNTACALIGQGQLNQAMKILQKAEDLCRRSLSEDTDGTEEDPQAELAIIHGQMAYILQLQGRTEEALQLYNQIIKLKPTDVGLLAVIANNIITINKDQNVFDSKKKVKLTNAEGVEFKLSKKQLQAIEFNKALLAMYTNQAEQCRKISASLQSQSPEHLLPVLIQAAQLCREKQHTKAIELLQEFSDQHPENAAEIKLTMAQLKISQGNISKACLILRSIEELKHKPGMVSALVTMYSHEEDIDSAIEVFTQAIQWYQNHQPKSPAHLSLIREAANFKLKYGRKKEAISDLQQLWKQNPKDIHTLAQLISAYSLVDPEKAKALSKHLPSSDSMSLKVDVEALENSAGATYIRKKGGKVTGDSQPKEQGQGDLKKKKKKKKGKLPKNYDPKVTPDPERWLPMRERSYYRGRKKGKKKDQIGKGTQGATAGASSELDASKTVSSPPTSPRPGSAATVSASTSNIIPPRHQKPAGAPATKKKQQQKKKKGGKGGW
For the molecule B8, the “binding ability compared with wild-type (HCT116)” value in data set [8] was “severely compromised or abolished the binding ability”.
